From PMC8606595, “Chimeric Antigen Receptor T Cells With Modified Interleukin-13 Preferentially Recognize IL13Rα2 and Suppress Malignant Glioma: A Preclinical Study” (Frontiers in Immunology, 2021) come the findings set out here.

The test has as its target Human IL13Rα2 (human, UniProt Q14627 27-380). Put plainly: SPR; Biacore T200; human IL13Rα1 (2,800 RU) or IL13Rα2 (3,100 RU) amine-coupled to CM5 chips in 10 mM sodium acetate pH 4.5; IL13-Fc proteins injected in twofold serial dilutions at constant flow (30 ml/min as printed); association 180 s, dissociation 600 s; regeneration 10 mM glycine pH 2.0; 1:1 fitting model. Particulars: both partners purified.

Sequence of Human IL13Rα2 (Q14627 27-380): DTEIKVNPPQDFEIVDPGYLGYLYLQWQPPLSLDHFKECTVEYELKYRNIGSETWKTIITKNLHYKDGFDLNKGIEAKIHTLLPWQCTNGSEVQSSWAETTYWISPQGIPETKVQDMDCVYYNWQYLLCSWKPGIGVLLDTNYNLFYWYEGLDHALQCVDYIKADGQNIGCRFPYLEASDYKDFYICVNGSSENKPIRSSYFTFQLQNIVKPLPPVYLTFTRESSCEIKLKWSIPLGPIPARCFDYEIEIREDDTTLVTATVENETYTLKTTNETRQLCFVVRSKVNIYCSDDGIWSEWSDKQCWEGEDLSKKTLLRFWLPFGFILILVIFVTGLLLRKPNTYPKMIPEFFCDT

B1: YYB-103 IL13 (modified IL13.E13K.R66D.S69D.R109K, antigen binding domain of YYB-103) fused with human Fc (Fc fusion)
chain: SPGPVPPSTALRKLIEELVNITQNQKAPLCNGSMVWSINLTAGMYCAALESLINVSGCSAIEKTQDMLDGFCPHKVSAGQFSSLHVRDTKIEVAQFVKDLLLHLKKLFKEGQFN
modifications: Fused to human Fc (carrier left out; probably dimeric through Fc). Numbering offset +32 is the only one that fits E13, R66, S69 and R109 together. / Amine-coupled to CM5 chip; extracellular domain …
In the case of B1, the Kd (commonly a measure of binding affinity in units of concentration) came out at 7.4 nM, the dissociation rate constant (koff) (usually the rate constant with which the complex falls apart) was 1.26e-05 s⁻¹ and the kon (commonly the second-order rate constant of association) came out at 1670 M⁻¹ s⁻¹.
